According to paper doi:10.1101/698563 (bioRxiv, 2019):

Molecular target: human carcinoembryonic antigen (CEA) (Homo sapiens, UniProt P06731)
Test: flow cytometry on cells

Chain of human carcinoembryonic antigen (CEA) (P06731 35-685): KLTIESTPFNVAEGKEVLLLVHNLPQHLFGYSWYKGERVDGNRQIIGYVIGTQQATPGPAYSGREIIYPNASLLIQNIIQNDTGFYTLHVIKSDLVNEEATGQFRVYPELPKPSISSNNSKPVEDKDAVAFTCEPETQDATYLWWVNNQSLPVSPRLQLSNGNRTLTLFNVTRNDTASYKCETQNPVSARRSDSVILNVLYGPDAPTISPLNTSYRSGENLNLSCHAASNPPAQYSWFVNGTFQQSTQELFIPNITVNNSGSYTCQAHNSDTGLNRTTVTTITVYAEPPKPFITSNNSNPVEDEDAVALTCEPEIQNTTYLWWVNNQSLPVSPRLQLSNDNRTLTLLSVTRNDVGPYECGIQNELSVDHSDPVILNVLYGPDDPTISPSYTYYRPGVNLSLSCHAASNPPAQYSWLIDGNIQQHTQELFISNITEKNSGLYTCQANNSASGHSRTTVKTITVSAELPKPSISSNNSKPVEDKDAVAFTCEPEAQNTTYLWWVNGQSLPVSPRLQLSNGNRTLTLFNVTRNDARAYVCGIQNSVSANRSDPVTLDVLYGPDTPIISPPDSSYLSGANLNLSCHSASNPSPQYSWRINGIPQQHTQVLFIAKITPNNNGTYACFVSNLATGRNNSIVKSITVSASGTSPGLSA

binding result: binds
B1: Sm3E-TNF (scFv, V domains shown)
VH: QVKLEQSGAEVVKPGASVKLSCKASGFNIKDSYMHWLRQGPGQRLEWIGWIDPENGDTEYAPKFQGKATFTTDTSANTAYLGLSSLRPEDTAVYYCNEGTPTGPYYFDYWGQGTLVTVSS
VL: ENVLTQSPSSMSVSVGDRVTIACSASSSVPYMHWLQQKPGKSPKLLIYLTSNLASGVPSRFSGSGSGTDYSLTISSVQPEDAATYYCQQRSSYPLTFGGGTKLEIK
